{"source": "paper PMC7665024", "about": "“Anti-apoptotic BCL-2 regulation by changes in dynamics of its long unstructured loop” (Communications Biology, 2020)", "key": {"[1]": {"test_system": "BCL-2 (EEE or WT):BimBH3, BAX-induced MOMP", "experiment": "Cytochrome c release assay at varying amount of ABT-199", "assay_type": "biochemical, mouse", "protocol": "(§1) Fig. 2 In vitro assays for evaluating BCL-2 activity. a Cytochrome c release assay with various BCL-2 mutants at varying concentrations. All of the release amounts are normalized to the result caused by the BimBH3-induced BAX activation (lane 3). […] GUVs provide a MOM-like environment devoid of endogenous mitochondrial proteins.\nThe cytochrome c release assays were performed at varying amounts of ABT-199.\nA Dounce homogenizer was used with 20 strokes to homogenize mouse liver tissue (0.2 mg). The mitochondria fraction was separated using centrifugation according to the Mitochondria Isolation Kit (Thermo Scientific). Mitochondria Assay Buffer A (MAB A) (200 mM mannitol, 68 mM sucrose, 10 mM HEPES, 110 mM KCl, 1 mM EDTA, […], 0.1% BSA, protease inhibitor) was used to wash the mitochondria fraction, followed by centrifugation at 12,000 × g. The pellet was collected and resuspended using enough MAB B (i.e., MBA A without 0.1% BSA) and then quantified by bradford assay (Bio-Rad) to yield a final protein content of the mitochondrial fraction ~3 mg/mL. […] Quantification of IB was done using ImageJ software (version 1.49, NIH). The fraction of cytochrome c released (%) is calculated by (I–I0)/(Imax–I0)×100%, where Imax and I0 are the analyzed intensities of cytochrome c with and without activated BAX, respectively. […]"}, "BCL-2-dependent tumors": {"test_system": "BCL-2-dependent tumors", "conditions": "cited from earlier work", "from_the_text": "It is worth noting that the binding groove is also responsible for the engagement of an orally bioavailable small molecule ABT-199 (Venetoclax)[8],[13]. […] ABT-199 can displace the bound pro-apoptotic activator from the groove of BCL-2 efficiently and, consequently, cause the release of pro-apoptotic activators, promoting MOMP and apoptosis. This study will use ABT-199 to examine whether the BCL-2 mutants studied here have the same response as FL-BCL-2 to ABT-199."}, "[2]": {"test_system": "BAX-induced MOMP, isolated mitochondria", "experiment": "In vitro cytochrome c release assay, isolated mitochondria (BCL-2 mutants)", "assay_type": "biochemical, mouse", "conditions": "for Cytochrome c release, Average: Bax+BimBH3 = 100, mean of n = 6", "from_the_text": "To verify this implication, we performed in vitro cytochrome c release assay using isolated mitochondria. […] Lane 3 (Fig. 2a) is a positive control for the cytochrome c release assays. […] (More experimental results in support of the observed BCL-2 activity are given in Supplementary Fig. 3.)\nas §1\nA Dounce homogenizer was used with 20 strokes to homogenize mouse liver tissue (0.2 mg). The mitochondria fraction was separated using centrifugation according to the Mitochondria Isolation Kit (Thermo Scientific). Mitochondria Assay Buffer A (MAB A) (200 mM mannitol, 68 mM sucrose, 10 mM HEPES, 110 mM KCl, 1 mM EDTA, […], 0.1% BSA, protease inhibitor) was used to wash the mitochondria fraction, followed by centrifugation at 12,000 × g. The pellet was collected and resuspended using enough MAB B (i.e., MBA A without 0.1% BSA) and then quantified by bradford assay (Bio-Rad) to yield a final protein content of the mitochondrial fraction ~3 mg/mL. The final mitochondria fraction was placed on ice for further downstream processing or stored at −80 °C with additional 300 mM trehalose for future use[38]. […] The mixture was then incubated with BAX (0.1 μM) and 10 μL of the mitochondrial fraction ([…]) for 0.5 h at 37 °C. Final volume was adjusted to 30 μL. Following centrifugation at 12,000×g for 10 min, the supernatant was subjected to subsequent immunoblotting (IB). Quantification of IB was done using ImageJ software (version 1.49, NIH). The fraction of cytochrome c released (%) is calculated by (I–I0)/(Imax–I0)×100%, where Imax and I0 are the analyzed intensities of cytochrome c with and without activated BAX, respectively.\nSamples were resolved by SDS–PAGE (15%) and electroblotted onto a 0.45 μm PVDF membrane (GE Healthcare). Primary antibodies used in this study included rabbit anti-BAX N20 (Santa Cruz Biotechnology), mouse anti-BCL-2(C2) (Santa Cruz Biotechnology) and mouse anti-cytochrome c antibodies (clone 7H8.2C12, Millipore). Detection was achieved using sheep anti-mouse IgG HRP (GE Healthcare) and donkey anti-rabbit IgG HRP (GE Healthcare) secondary antibodies. Proteins were visualized by 4CN Plus Chromogenic Substrate (PerkinElmer)."}, "apoptotic cell death": {"test_system": "apoptotic cell death", "conditions": "phosphomimetic BCL-2; cited from earlier work", "from_the_text": "However, the three phosphorylation-related residues are in a 65-residue-long, highly flexible loop domain (denoted by FLD, herein; Fig. 1a) that is often removed for ..."}, "trypsin": {"test_system": "trypsin", "experiment": "Limited proteolysis by trypsin", "conditions": "BCL-2 20 μM, trypsin 0.04-9.44 μM, 1 h, room temperature, SDS-PAGE", "protocol": "Fig. 3 Structural differences between WT and EEE. a An illustration of mutation sites prepared for spin-labeling ESR studies. b Distance distributions of various double-spin-labeled BCL-2 (WT or EEE) mutants are determined from the experimental DEER data. […] As highlighted, the displacements of α1 and α2 account for the major differences. d An illustration highlighting the positions of α2–α7 and the binding groove. Structures of WT and EEE are colored as in c. Helices α4–α7 change little between the WT and EEE. The displacement of α2 is critical to the change in the local environment of the binding groove. e Limited proteolysis of BCL-2 (20 μM) analyzed on SDS–PAGE. Trypsin concentrations were 0.04, 0.11, 0.34, 1.03, 3.11, 9.44 μM. Incubation time was 1 h at room temperature. It confirms that tertiary conformations of WT versus EEE are indeed different.\nBCL-2 conformational change was assessed by limited proteolysis using trypsin (MERCK). In brief, 5 µg BCL-2 (WT or EEE) was digested at enzyme/substrate ratios ranging from 1:2 to 1:461 for 1 h at room temperature. Proteolysis was quenched by adding 1 mM PMSF, and then samples were confirmed by SDS–PAGE with Coomassie blue staining."}, "[3]": {"conditions": "BAX 0.1 µM, BimBH3 2 µM, Fig. 2a"}}, "note": "Entries after “also recorded” stand apart in the source; their conditions may differ."}
{"molecule": "CC1(C)CCC(CN2CCN(c3ccc(C(=O)NS(=O)(=O)c4ccc(NCC5CCOCC5)c([N+](=O)[O-])c4)c(Oc4cnc5[nH]ccc5c4)c3)CC2)=C(c2ccc(Cl)cc2)C1", "note": "[ABT-199, Venetoclax, reference compound]", "values": [{"measurement": "effect on cytochrome c release (in words)", "setting": "[1]; ABT-199 4–30 µM added to pre-incubated BCL-2 (EEE or WT), BimBH3 2 µM, BAX 0.1 µM, mitochondria, Fig. 2b", "value": "the greater the release of cytochrome c was detected"}, {"measurement": "displacement of BimBH3 from BCL-2 (in words)", "setting": "[1]; BCL-2 EEE or WT", "value": "can displace BimBH3 from BCL-2 (either EEE or WT)"}, {"measurement": "inhibition of tumor growth (in words)", "setting": "BCL-2-dependent tumors", "value": "potently inhibits the growth of BCL-2-dependent tumors"}]}
{"molecule": "BAX: full-length mouse BAX; in FRET the single-cysteine variant BAX136C labeled with AL488 [reference compound]", "values": [{"measurement": "inhibition of BAX-induced MOMP / cytochrome c release (in words)", "setting": "[2]; [3]", "value": "inactive"}]}
{"molecule": "EEE (protein, Pacific Blue (maleimide) on the native cysteine 158; left off: His6, C-terminal, state not stated) MAHAGRTGYDNREIVMKYIHYKLSQRGYEWDAGDVGAAPPGAAPAPGIFSSQPGHTPHPAASRDPVAREEPLQTPAAPGAAAGPALEPVPPVVHLTLRQAGDDFSRRYRRDFAEMSSQLHLTPFTARGRFATVVEELFRDGVNWGRIVAFFEFGGVMCVESVNREMSPLVDNIALWMTEYLNRHLHTWIQDNGGWDAFVELYGPSMRPLFDFSWLSL", "values": [{"measurement": "capacity to inhibit BAX-induced MOMP compared with S70E and WT (in words)", "setting": "[2]; [3]", "value": "evidently greater than those of S70E (lanes 7–9) and WT (lanes 10–12); also recorded: the most potent in inhibiting the BAX-induced MOMP"}, {"measurement": "inhibition of BAX-induced MOMP / cytochrome c release (in words)", "setting": "[2]; [3]", "value": "largely inhibited"}, {"measurement": "Cytochrome c release, Average", "setting": "[2]; BAX+BimBH3 + 2uM BCL-2 protein", "value": 66.3319}, {"measurement": "Cytochrome c release, Average", "setting": "[2]; BAX+BimBH3 + 4uM BCL-2 protein", "value": 14.0555}, {"measurement": "Cytochrome c release, Average", "setting": "[2]; BAX+BimBH3 + 6uM BCL-2 protein", "value": 8.953}, {"measurement": "protection against apoptotic cell death (in words)", "setting": "apoptotic cell death", "value": "enhanced to protect cells against apoptotic cell death"}, {"measurement": "susceptibility to trypsin proteolysis (in words)", "setting": "trypsin", "value": "relatively resistant"}]}
